Legend:
Experiment in all cases: alanine scan, flow cytometry, HEK293-T
[1] = target: human CD33 T75A (human) (UniProt P20138)
[2] = target: human CD33 F177A (human) (UniProt P20138)
[3] = target: human CD33 W167A (human) (UniProt P20138)
[4] = target: human CD33 P96A (human) (UniProt P20138)
[5] = target: human CD33 L187A (human) (UniProt P20138)
[6] = target: human CD33 T125A (human) (UniProt P20138)
[7] = target: human CD33 R119A (human) (UniProt P20138)
[8] = target: human CD33 P55A (human) (UniProt P20138)
[9] = target: human CD33 P72A (human) (UniProt P20138)
[10] = target: human CD33 H193A (human) (UniProt P20138)
[11] = target: human CD33 S135A (human) (UniProt P20138)
[12] = target: human CD33 C163A (human) (UniProt P20138)
Sequence of human CD33 C163A (human) (P20138 18-364 C163A limits assumed): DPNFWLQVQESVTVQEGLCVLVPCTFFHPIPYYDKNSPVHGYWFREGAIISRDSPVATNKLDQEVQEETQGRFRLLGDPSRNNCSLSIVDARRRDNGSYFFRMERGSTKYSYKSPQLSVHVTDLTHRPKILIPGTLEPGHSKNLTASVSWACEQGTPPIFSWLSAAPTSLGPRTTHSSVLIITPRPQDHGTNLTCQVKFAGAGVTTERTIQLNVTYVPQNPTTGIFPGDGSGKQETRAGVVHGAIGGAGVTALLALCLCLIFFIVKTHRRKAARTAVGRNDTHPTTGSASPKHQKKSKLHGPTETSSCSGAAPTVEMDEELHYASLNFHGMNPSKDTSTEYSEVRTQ

[13] = target: human CD33 V138A (human) (UniProt P20138)
Sequence of human CD33 V138A (human) (P20138 18-364 V138A limits assumed): as the sequence (P20138 18-364 C163A limits assumed) above, with V121A, A146C counted along it

[14] = target: human CD33 P175A (human) (UniProt P20138)
[15] = target: human CD33 W179A (human) (UniProt P20138)
[16] = target: human CD33 I66A (human) (UniProt P20138)
[17] = target: human CD33 A168S (human) (UniProt P20138)
Sequence of human CD33 A168S (human) (P20138 18-364 A168S limits assumed): as the sequence (P20138 18-364 C163A limits assumed) above, with A146C, A151S counted along it

[18] = target: human CD33 S131A (human) (UniProt P20138)
[19] = target: human CD33 E84A (human) (UniProt P20138)
[20] = target: human CD33 L161A (human) (UniProt P20138)
Sequence of human CD33 L161A (human) (P20138 18-364 L161A limits assumed): as the sequence (P20138 18-364 C163A limits assumed) above, with L144A, A146C counted along it

[21] = target: human CD33 G172A (human) (UniProt P20138)
Sequence of human CD33 G172A (human) (P20138 18-364 G172A limits assumed): as the sequence (P20138 18-364 C163A limits assumed) above, with A146C, G155A counted along it

[22] = target: human CD33 C169A (human) (UniProt P20138)
[23] = target: human CD33 P174A (human) (UniProt P20138)
[24] = target: human CD33 F90A (human) (UniProt P20138)
Sequence of human CD33 F90A (human) (P20138 18-364 F90A limits assumed): as the sequence (P20138 18-364 C163A limits assumed) above, with F73A, A146C counted along it

[25] = target: human CD33 R110A (human) (UniProt P20138)
[26] = target: human CD33 D112A (human) (UniProt P20138)
[27] = target: human CD33 Y59A (human) (UniProt P20138)
Sequence of human CD33 Y59A (human) (P20138 18-364 Y59A limits assumed): as the sequence (P20138 18-364 C163A limits assumed) above, with Y42A, A146C counted along it

[28] = target: human CD33 S178A (human) (UniProt P20138)
Sequence of human CD33 S178A (human) (P20138 18-364 S178A limits assumed): as the sequence (P20138 18-364 C163A limits assumed) above, with A146C, S161A counted along it

[29] = target: human CD33 T86A (human) (UniProt P20138)
[30] = target: human CD33 L153A (human) (UniProt P20138)
[31] = target: human CD33 S181A (human) (UniProt P20138)
[32] = target: human CD33 F118A (human) (UniProt P20138)
[33] = target: human CD33 S71A (human) (UniProt P20138)
[34] = target: human CD33 G94A (human) (UniProt P20138)
[35] = target: human CD33 G114A (human) (UniProt P20138)
[36] = target: human CD33 S158A (human) (UniProt P20138)
Sequence of human CD33 S158A (human) (P20138 18-364 S158A limits assumed): as the sequence (P20138 18-364 C163A limits assumed) above, with S141A, A146C counted along it

[37] = target: human CD33 F117A (human) (UniProt P20138)
[38] = target: human CD33 Y50A (human) (UniProt P20138)
[39] = target: human CD33 R111A (human) (UniProt P20138)
Sequence of human CD33 R111A (human) (P20138 18-364 R111A limits assumed): as the sequence (P20138 18-364 C163A limits assumed) above, with R94A, A146C counted along it

[40] = target: human CD33 L78A (human) (UniProt P20138)
[41] = target: human CD33 S166A (human) (UniProt P20138)
Sequence of human CD33 S166A (human) (P20138 18-364 S166A limits assumed): as the sequence (P20138 18-364 C163A limits assumed) above, with A146C, S149A counted along it

[42] = target: human CD33 N99A (human) (UniProt P20138)
[43] = target: human CD33 T173A (human) (UniProt P20138)
Sequence of human CD33 T173A (human) (P20138 18-364 T173A limits assumed): as the sequence (P20138 18-364 C163A limits assumed) above, with A146C, T156A counted along it

[44] = target: human CD33 L141A (human) (UniProt P20138)
[45] = target: human CD33 R91A (human) (UniProt P20138)

Sequence of human CD33 W167A (human) (P20138 18-364 W167A limits assumed): as the sequence (P20138 18-364 C163A limits assumed) above, with A146C, W150A counted along it
Sequence of human CD33 F177A (human) (P20138 18-364 F177A limits assumed): as the sequence (P20138 18-364 C163A limits assumed) above, with A146C, F160A counted along it

In the case of Refmab #7 (WM53) (antibody), the Mean % WT Binding [1] is reported as 115 % WT binding, the Mean % WT Binding [2] is reported as 74.1 % WT binding and the Mean % WT Binding [3] is reported as 127 % WT binding. For the same substance, the Mean % WT Binding [4] was 98.7 % WT binding, the Mean % WT Binding [5] was 124 % WT binding and the Mean % WT Binding [6] was 91.3 % WT binding. It also gave a Mean % WT Binding [7] of 116 % WT binding, a Mean % WT Binding [8] of 94.7 % WT binding and a Mean % WT Binding [9] of 114 % WT binding. For the same substance, the Mean % WT Binding [10] was 107 % WT binding, the Mean % WT Binding [11] was 101 % WT binding and the Mean % WT Binding [12] was 102 % WT binding. For the same substance, the Mean % WT Binding [13] was 91 % WT binding, the Mean % WT Binding [14] was 126 % WT binding and the Mean % WT Binding [15] was 111 % WT binding. For the same substance, the Mean % WT Binding [16] was 117 % WT binding, the Mean % WT Binding [17] was 117 % WT binding and the Mean % WT Binding [18] was 114 % WT binding. The Mean % WT Binding [19] was 109 % WT binding, the Mean % WT Binding [20] was 120 % WT binding and the Mean % WT Binding [21] was 92.1 % WT binding. For the same substance, the Mean % WT Binding [22] was 90 % WT binding, the Mean % WT Binding [23] was 122 % WT binding and the Mean % WT Binding [24] was 83.3 % WT binding. The Mean % WT Binding [25] was 95.9 % WT binding, the Mean % WT Binding [26] was 47.9 % WT binding and the Mean % WT Binding [27] was 127 % WT binding. For the same substance, the Mean % WT Binding [28] was 106 % WT binding, the Mean % WT Binding [29] was 111 % WT binding and the Mean % WT Binding [30] was 101 % WT binding. For the same substance, the Mean % WT Binding [31] was 86.7 % WT binding, the Mean % WT Binding [32] was 3.2 % WT binding and the Mean % WT Binding [33] was 104 % WT binding. It also gave a Mean % WT Binding [34] of 99.2 % WT binding, a Mean % WT Binding [35] of 94.6 % WT binding and a Mean % WT Binding [36] of 113 % WT binding. It also gave a Mean % WT Binding [37] of 132 % WT binding, a Mean % WT Binding [38] of 1 % WT binding and a Mean % WT Binding [39] of 94 % WT binding. The Mean % WT Binding [40] was 88.9 % WT binding, the Mean % WT Binding [41] was 108 % WT binding and the Mean % WT Binding [42] was 102 % WT binding. It also gave a Mean % WT Binding [43] of 103 % WT binding, a Mean % WT Binding [44] of 118 % WT binding and a Mean % WT Binding [45] of 114 % WT binding.

Reference: patent US20260242735A1
